By stoichiometry N is commonly meant the number of molecules, sites or subunits per partner or assembly.

To fix the notation:
B1: hASIC1a comprising amino acids 12–478 with a Strep Tag II in the N-terminus (domain or fragment, human, UniProt P78348-2 12-478, looked up)
chain: GVQPVSIQAFASSSTLHGLAHIFSYERLSLKRALWALCFLGSLAVLLCVCTERVQYYFHYHHVTKLDEVAASQLTFPAVTLCNLNEFRFSQVSKNDLYHAGELLALLNNRYEIPDTQMADEKQLEILQDKANFRSFKPKPFNMREFYDRAGHDIRDMLLSCHFRGEVCSAEDFKVVFTRYGKCYTFNSGRDGRPRLKTMKGGTGNGLEIMLDIQQDEYLPVWGETDETSFEAGIKVQIHSQDEPPFIDQLGFGVAPGFQTFVACQEQRLIYLPPPWGTCKAVTMDSDLDFFDSYSITACRIDCETRYLVENCNCRMVHMPGDAPYCTPEQYKECADPALDFLVEKDQEYCVCEMPCNLTRYGKELSMVKIPSKASAKYLAKKFNKSEQYIGENILVLDIFFEVLNYETIEQKKAYEIAGLLGDIGGQMGLFIGASILTVLELFDYAYEVIKHKLCRRGKCQKEAKRS
notes: human acid-sensing ion channel 1a (ASIC1a), residues 12-478 (50 a.a. carboxyl terminal deletion); Trimer in the cryo-EM structure; also called human ASIC1a; recombinant hASIC1a protein; source: HEK293F (FreeStyle 293 F) cells, transfected (pcDNA3.1); crude membranes, solubilised in DDM, purified (Strep Tactin XT, SEC); not shown: Strep Tag II, N-terminal, kept
B2: Nb D10 (VHH)
VHH: QVQLVESGGGLVQPGGSLRLSCAASGFTFNRATMSWYRQAPGKERELVATIGSFGISTNYTDSVKGRFTISRDNAKNTLYLQMNSLKPEDTAVYYCNARYRSTYPWGQGTQVTVSS
notes: alpaca VHH selected against hASIC1a; source: E. coli WK6, periplasm
B3: Nb C4 (VHH)
VHH: QVQLVESGGGLVQPGGSLRLSCAASGFTFSRAAMSWYRQAPGKEREMVATIGSFGISTNYSDSVKGRFTISRDNAKNTVYLHMNSLKPEDTAVYYCNARYRSTYPWGQGTQVTVSS
notes: alpaca VHH selected against hASIC1a; The name is read out of the printed "C1-4-5"; also called C4 (printed within "C1-4-5"); source: E. coli WK6, periplasm
B4: Nb H10 (VHH)
VHH: QVQLVESGGGLVQPGGSLRLTCAASGFTFSRATMSWYRQAPGKERELVATIGSFGVSTNYADSVKGRFTISRDNAKNTAYLYMNNLKPEDTAVYYCNAHYRSTYPWGQGTQVTVSS
notes: as for B2
B5: G10 (VHH)
VHH: QVQLVESGGGLVQPGGSLRLSCAASGGTLDVYTIGWFRQAPGKEREGLSCLSSSDGSTYYADSVKGRFTISRDNAKNTMYLQMNSLKPEDTAVYYCVAGAWTHVQAMCVTCFGCDWGQGTQVTVVS
B6: B11 (VHH)
VHH: QLQLVESGGGLVQPGGSLRLSCAASGLTLDNYAIGWFRQVPGKEREDVSCISTSHGSLHYANSVKGRFTISVDAAENTVYLQMNSLNAEDTAVYFCAARGFDSDCSVYGMDFWGKGTPVTVSS
B7: 2B-E6 (VHH)
VHH: QVQLVESGGGLVQPGGSLRLSCAASGRTVSSYVMGWYRQAPGKEREFVASVRWTTGLTYVEDSVKGRFTISRDNTKSTVDLQMNSLKPEDTAIYYCNARPLVMLGPTEAGYWGQGTQVTVSS
B8: F7 (VHH)
VHH: QVQLVESGGGLVMAGGSLSLSCAASGRLFSTWTMGWFRQAPGKEREFVGAIRRVGDSPSYADSVKGRFTISRDSTKNALYLKMNSLKPEDTAVYYCAAKRFGNEYEYWGQGTQVTVSS
B9: A12-2 (VHH)
VHH: QLQLVESGGGLVMAGGSLSLSCAASGRLFSTWTMGWFRQAPGKEREFVGAIRRVGDSPSYADSVKGRFTISRDSTKNALYLKMNSLKPEDTAVYYCAAKRFGNEYEYWGQGTQVTVSS
B10: G11 (VHH)
VHH: QLQLVESGGGLVMAGGSLSLSCAASGRTFSTWTMAWFRQAPGKEREFVGAIRRIGDSPSYADSVKGRFTISRDNAKNALYLKMNSLKPEDTAVYYCAAKRFGNEYEYWGQGTQVTVSS
B11: H7 (VHH)
VHH: QLQLVESGGGLVQPGGSLRLSCAASGGTIDYYTIGWFRQAPGKEREGVSCIISKADSTKYADTVEGRFTISSDKAKNTVYLQMNSLQPEDTGVYFCAAYRVLIAGRNPGCLLNPPAEYDYWGQGTQVTVSS
B12: E9-3 (VHH)
VHH: QLQLVESGGDLVQPGGSLRLTCAASGFTFSSLTMSWHRQALGKERELVAAIGEATGATYYVESVKGRFIISRDNAKNTVFLQMNSLKPEDTAVYYCKAASSSNDYWGQGTQVTVSS
B13: G4-3 (VHH)
VHH: QVQLVESGGGLVQPGGSLRLSCAASGSTLDYYAIGWFRQAPGKEREGVSCISRSGGSTYYADSVKGRFTISRDNAKNTVYLQMNSLKPEDTAVYYCAADRGAVGGIFNSDYDAQNSLPPCSYGMDYWGKGTLVTVSS
B14: G4 (VHH)
VHH: QLQLVESGGGLVQPGGSLRLTCAASGFALDDYTIGWFRQAPGNEREGVACMHGGGIHIADSLKGRITISRDNAKNTVYLQMNSLKPEDTAVYYCAARLATATRWTCKLSDMDYWGKGTLVTVSS
B15: 1A-B1 (VHH)
chain: QLQLVESGGGLVQTGESLRLSCVASGIAFSRYIVGWYRQAPGKERELVASVRRNSGTNYVGDLKGGFFISSKNANNTVYQEMNNLKPADDAVYYCSTARPFLGDLPNNCGYWTQVTVSS
B16: 2B-D4 (VHH)
VHH: QVQLVESGGGLVQAGGSLRLSCAASGIAFSRYTMGWYRQAPGKQRELVADFSREGTTRYADAVKGRFTISRDNAKNTVYLEMNSLKPEDTAVYYCNARRPFLGNLANNWGRGTQVTVSS

The target of the first series is T1, human ASIC1a-Flag (human) (UniProt P78348).
T1 sequence: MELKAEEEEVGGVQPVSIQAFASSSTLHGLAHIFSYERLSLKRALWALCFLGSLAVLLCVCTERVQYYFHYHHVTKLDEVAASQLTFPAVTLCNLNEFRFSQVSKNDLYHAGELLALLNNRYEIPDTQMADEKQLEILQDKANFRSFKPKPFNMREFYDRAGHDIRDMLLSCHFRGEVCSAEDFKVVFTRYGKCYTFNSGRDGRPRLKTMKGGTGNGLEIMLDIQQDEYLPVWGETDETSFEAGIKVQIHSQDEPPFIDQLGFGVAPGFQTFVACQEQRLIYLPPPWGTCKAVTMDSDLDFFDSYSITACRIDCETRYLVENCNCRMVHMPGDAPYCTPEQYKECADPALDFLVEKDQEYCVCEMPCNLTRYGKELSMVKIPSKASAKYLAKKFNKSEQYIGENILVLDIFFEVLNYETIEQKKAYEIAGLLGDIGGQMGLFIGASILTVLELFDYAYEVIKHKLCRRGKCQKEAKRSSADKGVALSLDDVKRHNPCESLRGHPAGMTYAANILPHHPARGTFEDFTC
Experiment: not given
Conditions: not given
Take “psalmotoxin-1 (PcTx1) (from UniProt P60514 1-40) (peptide)”: the time constant of recovery of pH 6.0-induced currents after 60 s with 10 nM PcTx1, oocytes expressing hASIC1a (two-electrode voltage clamp) was 220 s.

The next series concerns the molecule itself. Description: cryo-EM structure; hASIC1a-Nb.C1 complex in DDM, pH 7.4, 20 mM HEPES, 150 mM NaCl, 5 mM CaCl2, 3.8 mg/mL; C3 symmetry imposed.
Conditions: not given
With B1, the “stoichiometry N” value is 3.

The target in another series is T2, human ASIC1a-Flag (Homo sapiens, ASIC1a (528 aa isoform), UniProt P78348-2).
T2 construct: human acid-sensing ion channel 1a (ASIC1a); this molecule is used for them; also called hASIC1a; hASIC1a-Flag; source: HEK293T / HEK-293 cells, transfected (pcDNA3.1), on cells
The series is described as follows: immunostaining of cells or tissue; transfected cells on coverslips incubated with Nb (1 nM, 1 hr, on ice) in the medium, washed, fixed, permeabilized; Nb detected by anti-HA, channel by anti-Flag; confocal microscopy. Particulars: one partner purified.
For the molecule B2, the binding result is on record as “binds”.
Same read-out and setting: next, B3: “binds”.
As for B4, the binding result is given as “binds”.

The target in a further series is hASIC1a comprising amino acids 12–478 with a Strep Tag II in the N-terminus (human, UniProt P78348-2).
Experiment: not given
Conditions: not given
As for B5, the binding result was “binds”.
Still for that read-out and setting: as for B6, the entry is “binds”.
Still for that read-out and setting: as for B7, the entry is “binds”; as for B8, “binds”.
As to B9, the binding result is recorded as “binds”.
For the molecule B10, the binding result is recorded as “binds”.
As to B11, the binding result is given as “binds”.
Turning to B12, the binding result is given as “binds”.
Still for that read-out and setting: next, B13: “binds”; B14: “binds”.
With B15, the binding result is “binds”.
Take B16: the binding result is listed as “binds”.

For the origin of these results see publication PMC8318589, “Structure and analysis of nanobody binding to the human ASIC1a ion channel” (eLife, 2021).
